Laboratory results reported in the nanobody polyreactivity screen of Harvey et al. (2022).

Experiment: yeast display, Sf9 membrane polyspecificity reagent, FACS + sequencing; frameworks hold sequencing errors
Summary of the method: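 Sorting gates, low and high (top ~1%), were placed on anti-HA fluorescence to track expression and on streptavidin fluorescence to track reagent binding. A clone's polyreactivity label is taken from the gate it came out of. The reagent was 10% biotinylated, detergent-solubilized Sf9 membrane, applied for 1 hour at 4 °C to galactose-induced yeast display cells.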

| Sequence | polyreactivity (PSR sort gate) |
| --- | --- |
| QVQLVESGGGLVQAGGSLRLSCAASGSIYYAMGWYRQAPGKEREFVAAINSGGSTYYADSVKGRFTISRDNAKNTVYLQMNSLKPEDTAVYYCAADVWTPYLMSLKYGYDYWGQGTQVTVSS | low polyreactivity |
| QVQLVESGGGLVQAGGSLRLSCAASGSIYYNAMGWYRQAPGKERELVAGITWSGGSTYYADSVKGRFTISRDNAKNTVYLQMNSLKPEDTAVYYCAADFVYLGTHYGAYDYWGQGTQVTVSS | low polyreactivity |
| QVQLVESGGGLVQAGGSLRLSCAASGSLFGDYVMGWSRQAPGKERELVAAINRGGSTYYADSVKGRFTISRDNAKNTVYLQMNSLKPEDTAVYYGAAGYPSWYYGYPYDSWGQGTQVTVSS | low polyreactivity |
| QVQLVESGGGLVQAGGSLRLSCAASGSLFKRNAMGWYRQAPGKERELVAAITSSGGRTYYADSVKGRFTISRDNAKNTVYLLMNSLKPEDTAVYYCNKVRAGRDERRAGDYWGQGTQVTVSS | high polyreactivity |
| QVQLVESGGGLVQAGGSLRLSCAASGSLFKYYAMGWYRQAPGKERELVAAITIGGNTNYADSVKGRFTISRDNAKNTVYLQMNSLKPEDTAVYYCATGGYYSAIVYGGYDYWGQGTQVTVSS | low polyreactivity |
| QVQLVESGGGLVQAGGSLRLSCAASGSLFRYYVMGWYRQAPGKERELVAAISSRGGSTYYADSVKGRFTISRDNAKNSVYLLMNSLKPEDTAFYYCAARFGGWDRGLDYWGQGTLVTVSS | high polyreactivity |
| QVQLVESGGGLVQAGGSLRLSCAASGSLFSWYTKGWYRQAPGKERELVAAISRSGGRTYYADSVKGRFTISRDNAKNTVYLQMNSLKPEDTAVYSCAARVYSYYGSRGQRYDYWGQGTQVTVSS | high polyreactivity |
| QVQLVESGGGLVQAGGSLRLSCAASGSLFYINAMGWYRQAPGKERELVAAITSDGSTYYADSVKGRFTISRDNAKNTVYLQMNSLKPEDTAVYYCAADLTSDQYLYYWYWFYSWGQGTQVTVSS | low polyreactivity |
| QVQLVESGGGLVQAGGSLRLSCAASGSMFYKNAMVWYRQAPGKEREMVAAINSVGSTDYADSVKGRFTISRDNAKNTVYLQMNSLTPEDTAVYYCAATNLFTIIDYDYWGQGTQVTVSS | low polyreactivity |
| QVQLVESGGGLVQAGGSLRLSCAASGSMFYYYAMGWYRQPPGKERELVAAISSGGVGSTTYADSVKGRFTISRDNAKNTVYLQMNSLKPEDTAVYYCNADRPGYFYFYFNYWGQGTQVTVSS | high polyreactivity |
| QVQLVESGGGLVQAGGSLRLSCAASGSNFAVYAMGWYRQAPGKERELVATIRWNGGSTYYADSVKGRFTISRDNAKNTVYLQMNSLKQEDTAVYYCAKEYSTYVSKKSAYRYYYWGQGTQVTVSS | high polyreactivity |
| QVQLVESGGGLVQAGGSLRLSCAASGSNFDFYAMGWYRQAPGKERELVAAISSSGTSTYYADSVKGRFTISRDNAKNTVYLQMNSLKPEDTAVYYCAAVYSRSGYTWREYGYWGQGTQVTVSS | low polyreactivity |
| QVQLVESGGGLVQAGGSLRLSCAASGSNFDIYGMGWYRQAPGKERELVASISGGAGSTNYADSVKGRFTISRDNAKNTVYLQMNSLKPEDTAVYYCAAEVYVPDSFQHKFDVEYEYWGQGTQVTVSS | low polyreactivity |
| QVQLVESGGGLVQAGGSLRLSCAASGSNFDTYAMGRYRQAPGKERELVAAITRRAGSTYYADSVKGRFRISRDNAKNTVYLQMNSLKPEDTSVYYCAADFRYPDIYGGYDYWGQGTQVTVSS | low polyreactivity |
| QVQLVESGGGLVQAGGSLRLSCAASGSNFENYAMGWYRQAPGKERELVAAISSNGGSTYYADSVKGRFTLSRDKAKNTVYLQKNSLKPEDTAVYYCNKGRYYRQIYDYWGQGTQVTVSS | high polyreactivity |
| QVQLVESGGGLVQAGGSLRLSCAASGSNFFSYAMGWYREAPGKERELVAAIDYSGGGTYYADSVKGRFTISRDNAKNTVYLQMNSLKPEDTAVYYCNSDTEVWADTFISYRALNYWGQGTQVTVSS | low polyreactivity |
| QVQLVESGGGLVQAGGSLRLSCAASGSNFGKYAMGWYRPAPGKERELVATITRRGGSTYYADSVKGRFTISRDNAKNTVYLQMNSLKPEDSAVYYCAKRSNGYVDYGYWGQGTQVTVSS | high polyreactivity |
